# Entries after “also recorded” stand apart in the source; their conditions may differ.
# Assays:
# MDA-MB-435 = assay: Cytotoxicity on cell lines (HerDox dose curves); assay type: cell-based, human; conditions: concentration yielding 50% reduction in cell survival, mean ± SD
# Protocol: FIG. 17 (B) depicts toxicity to cells displaying differential HER2. Cytotoxicities from a range of HerDox doses were assessed on each cell line by metabolic assay and confirmed by crystal violet stain. LD50 values shown in log scale were determined by non-linear regression analyses of HerDox dose curves using a scientific graphing program and confirmed using a calculator. The relative HER2 level of each cell line is shown next to each LD50 value.
# The inventors measured cell surface levels of HER subunits on various cell lines and types described herein, as previously described levels may not reflect the actual levels in the available cells used. The inventors acquired the indicated cell lines from ATCC and the NIH/NCI and profiled these with respect to HER subunit levels (FIG. 17 (A)). To assess whether HerDox induces toxicity in accordance to HER2 levels, the inventors selected lines displaying HER2 at relatively high (SKBR3), moderate (MDA-MB-435, MDA-MB-453, HeLa), and low to undetectable (MDA-MB-231) levels, and performed cytotoxicity dose curves.
# T47D = assay: Cytotoxicity on cell lines (HerDox dose curves); assay type: cell-based, human; conditions: concentration yielding 50% reduction in cell survival, mean ± SD
# U251 human glioma cells = assay: Toxicity to glioma cells (cell count); assay type: cell-based; conditions: four days
# Protocol: Significant differences were determined by 2-tailed tests.
# Cells were trypsinized and counted on the last day.
# BT474 parental cells = assay: Tumor cell killing in culture; assay type: cell-based, human
# Protocol: (§1) FIG. 21 depicts graph that show the results of the administration of HerDox on various cells. […] N=3. *=p<0.05 compared to parental. […] N=3.
# (§2) N=3. *, p<0.05 compared to parental. […] N=3. […] Parental and resistant cell lines were treated with HerDox−/+HER3 blocking peptide (ErbB3 human; Prospec), and tested for cell survival 48 hours later. […] Treatments were compared to mock (saline)-treatment. […] N=3. *, p<0.05 compared to parental. […] N=3.
# Parental cell lines were pre-treated with 0.5 mg/mL Tz for 24 hours before testing these cells for surface HER3 levels. […] Parental cell lines were pre-treated with 0.5 mg/mL Tz for 24 hours before testing these cells for HerPBK10 binding. […] SKBR3 Parental cells were treated with Tz at indicated concentrations (see upper X-axes) 4 and 24 hours before HerDox treatment and assayed for survival at 48-72 h after treatment. N=3. […] SK-474 Parental cells were treated with Tz at indicated concentrations (see upper X-axes) 4 and 24 hours before HerDox treatment and assayed for survival at 48-72 h after treatment. N=3. […] MDA-MB-435 non-resistant cells were treated with Tz at indicated concentrations (see upper X-axes) 4 and 24 hours before HerDox treatment and assayed for survival at 48-72 h after treatment. […] N=3. […] Tz-resistant cells were treated with Tz at indicated concentrations (see upper X-axes) 4 and 24 hours before HerDox treatment and assayed for survival at 48-72 h after treatment. N=3.
# N=3. *, p<0.05 compared to parental. […] N=3. […] N=3. […] Tumor volumes were measured by calipers. […] Tumor volumes were measured by calipers. […]
# [1] = tested on: SKBR3 trastuzumab-resistant cells; assay: Tumor cell killing in culture; assay type: cell-based, human; conditions: 48-72 h after treatment
# Protocol: as §1, §2
# Each therapeutic was administered at concentration ranges previously established for eliciting therapeutic efficacy.
# Each therapeutic was administered at concentration ranges previously established or known in the art for eliciting therapeutic efficacy.
# [2] = Particle size (cryoEM, dynamic light scattering); assay type: physicochemical; conditions: round particles
# Protocol: (A) depicts a graphic of HerDox formed by non-covalent, serum-stable self-assembly, showing HerPBK10 with functional domains delineated, and electrophilic binding with Dox-intercalated ds-oligo. (B) depicts a CryoEM image of HerDox particles. (C) is a HPLC chromatogram of HerDox showing elution profile of Dox absorbance. […] (D) illustrates the protection of ds-oligo from serum nuclease digestion by HerPBK10. The ds-oligo was incubated for 20 min in 100% mouse serum (Abcam, Cambridge, Mass., USA) before PAGE and EtBr staining to visualize the DNA. (E) illustrates that HerDox remains stable in blood. […] N=3. *, p<0.05, compared to respective retentates.
# FIG. 33 illustrates the formation of certain corroles. […] Table summarizes salient features of the three corroles.
# In some embodiments, the corrole comprises a metallic chemical element. In some of these embodiments, the metal is a transition metal. In some embodiments, the metal is Iron (Fe), Manganese (Mn), or Gallium (Ga). In other embodiments, the corrole is non-metallated. Metallated and non-metallated corroles bind in protein pockets with negligible dissociation. […] Corrole assembly with HerPBK10 yields 25-35 corroles/protein, resulting in 10-20 nm round particles (FIG. 33-B) that withstand high-speed ultrafiltration.
molecule,measurement,setting,value
"HerDox: non-covalent complex of HerPBK10, double-stranded oligonucleotide and intercalated Dox (Unit A+Unit B+Unit C) (conjugate, left off: small tags and cut ends) SHLVKCAEKEKTFCVNGGECFMVKDLSNPSRYLCKCQPGFTGARCTENVPMKVQNQEKAEELYQKMRRAAMYEEGPPPSYESVVSAAPVAAALGSPFDAPLDPPFVPPRYLRPTGGRNSIRYSELAPLFDTTRVYLVDNKSTDVASLNYQNDHSNFLTTVIQNNDYSPGEASTQTINLDDRSHWGGDLKTILHTNMPNVNEFMFTNKFKARVMVSRLPTKDNQVELKYEWVEFTLPEGNYSETMTIDLMNNAIVEHYLKVGRQNGVLESDIGVKFDTRNFRLGFDPVTGLVMPGVYTNEAFHPDIILLPGCGVDFTHSRLSNLLGIRKRQPFQEGFRITYDDLEGGNIPALLDVDAYQASLKDDTEQGGGGAGGSNSSGSGAEENSNAAAAAMQPVEDMNDHAIRGDTFATRAEEKRAEAEAAAEAAAPAAQPEVEKPQKKPVIKPLTEDSKKRSYNLISNDSTFTQYRSWYLAYNYGDPQTGIRSWTLLCTPDVTCGSEQVYWSLPDMMQDPVTFRSTRQISNFPVVGAELLPVHSKSFYNDQAVYSQLIRQFTSLTHVFNRFPENQILARPPAPTITTVSENVPALTDHGTLPLRNSIGGVQRVTITDARRRTCPYVYKALGIVSPRVLSSRTFKKKKKKKKKK",EC50,MDA-MB-435,0.74 ± 0.07 µM
same,EC50,T47D,0.64 ± 0.04 µM
same,toxicity relative to the equivalent concentration of Dox,U251 human glioma cells; 0.5 μM or 1 μM,8-10 times
same,factor less HerDox eliciting the same toxicity as Dox,U251 human glioma cells,10 ×
same,cell death on parental BT474 (comparative),BT474 parental cells; 48-72 h after treatment,higher cell death compared to Tz and Tz+Pz; also recorded: modestly improved over trastuzumab; also recorded: modestly improved over Tz
same,enhancement of HerDox toxicity by trastuzumab pre-treatment,"BT474 parental cells; parental BT474, 4 h pre-treatment",50%
same,enhancement of HerDox toxicity by trastuzumab pre-treatment,"BT474 parental cells; parental BT474, 24 h pre-treatment",~75%
same,cell death,[1],> 80%
same,particle diameter,[2],10-50 nm
